Reference: patent WO2023182244A1 (dated 2023)

T1: HuNoV GII.2 VLP (VP1 of HuNoV GII.2 OSN201926, baculovirus-expressed virus-like particle) (human norovirus GII.2 (OSN201926), …)
T1 construct: VP1 gene cloned from HuNoV GII.2 (OSN201926), expressed by the baculovirus method as a VLP and purified by ultracentrifugation; also called HuNoV GII.2 VP1; HuNoV GII.2 VLP1
T1 chain: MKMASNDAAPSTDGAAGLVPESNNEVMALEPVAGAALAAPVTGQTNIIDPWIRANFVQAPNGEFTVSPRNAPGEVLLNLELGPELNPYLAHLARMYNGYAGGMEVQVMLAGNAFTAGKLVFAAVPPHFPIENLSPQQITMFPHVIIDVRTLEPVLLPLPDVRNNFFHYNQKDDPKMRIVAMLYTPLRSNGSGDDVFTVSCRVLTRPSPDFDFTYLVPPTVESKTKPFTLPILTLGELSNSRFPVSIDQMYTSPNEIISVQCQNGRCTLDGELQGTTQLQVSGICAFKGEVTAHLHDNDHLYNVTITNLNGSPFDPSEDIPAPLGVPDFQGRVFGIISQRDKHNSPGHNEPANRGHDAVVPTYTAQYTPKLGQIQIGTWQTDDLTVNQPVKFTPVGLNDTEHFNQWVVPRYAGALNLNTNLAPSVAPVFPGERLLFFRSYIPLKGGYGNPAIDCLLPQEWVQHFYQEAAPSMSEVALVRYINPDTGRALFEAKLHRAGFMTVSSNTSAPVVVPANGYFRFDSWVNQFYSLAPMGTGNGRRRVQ


Biological target: T1, HuNoV GII.2 VLP (VP1 of HuNoV GII.2 …)
Test: ELISA of E. coli periplasm fractions on HuNoV GII.2 VLP; clones selected by binding to the antigen

Row | Binder | binding result
1 | YGI-1B6 (VHH, Llama VHH expressed in E. coli from pMEK222 (FLAG tag and His tag), purified on Co resin; also called VHH antibody YGI-1B6; not shown: FLAG tag and His tag from vector pMEK222; not clear whe) VHH: EVQLVESGGGLVQAGGSLRLSCAASGRTFSNYFMGWFRQAPGKEREFVAAISWSGGSTYYTDSVKGRFTISRDNAKNTMYLQMNTLKPEDTAVYYCAAEKASLSGPSYGLGLDFSRYDYWGQGTQVTVSS | binds
2 | YGI-1C5 (VHH, Llama VHH expressed in E. coli from pMEK222 (FLAG tag and His tag), purified on Co resin; also called VHH antibody YGI-1C5; not shown: FLAG tag and His tag from vector pMEK222; not clear whe) VHH: EVQLVESGGGLVQTGGSLRLSCAASGLTFSNYAMGWFRQAPGKEREFVATINWSSSRTIYADSVKGRFTISREDAKNTVYLQMNSLKPEDTAVYYCAAEGGAPRWTTGTRRNDYRYWGQGTQVTVSS | binds
3 | YGI-1E10 (VHH, Llama VHH expressed in E. coli from pMEK222 (FLAG tag and His tag), purified on Co resin; also called VHH antibody YGI-1E10; not shown: FLAG tag and His tag from vector pMEK222; not clear whe) VHH: EVQLVESGGGLVQAGGSLRLSCTAPKSIASFNSVGWYRQAPGKQRELVATITRSRTTNYADSARGRFTISRDNTKNMMFLQMNSLKPEDTAVYYCNARDIVPVFQTYWGQGTRVTVSS | binds
4 | YGI-1F4 (VHH, Llama VHH expressed in E. coli from pMEK222 (FLAG tag and His tag), purified on Co resin; also called VHH antibody YGI-1F4; not shown: FLAG tag and His tag from vector pMEK222; not clear whe) VHH: EVQLVESGGGLVQAGGSLRLSCGASGRTFSNYAMGWFRQAPGKEREFVAAINWSGDKTDYADSVKGRFTISRDNVKNFVALQMNSLKPEDTAVYYCATEGGFPQFGSNLKRTSFGLWGQGTQVTVSS | binds
5 | YGI-1H3 (VHH, Llama VHH expressed in E. coli from pMEK222 (FLAG tag and His tag), purified on Co resin; also called VHH antibody YGI-1H3; not shown: FLAG tag and His tag from vector pMEK222; not clear whe) VHH: EVQLVESGGGLVQAGGSLRLSCVVSGRSFSSLAMGWFRQAPGNQREFVAAISWSGGSSYYGDSVKGRFTISRDDAKNTVYLQMDSLKPEDTADYYCATEIVPKYDTAAYYKSQGAFGSWGQGTQVTVSS | binds
